Here are results for three molecules from PMC10720262 (2023).

Residue numbers refer to the chain shown, from its start.

First the molecules themselves.
B1: CL-437092 (antibody, V domains shown)
VH: QVQLVESGGGVVQPGGSLRLSCAASGFTLSSFGIHWVRQAPGKGLEWVALIWHDGSMKYYADSVKGRFTISRDNSKNTVDIQMNSLRVEDTAVYYCARPGIGSPGDHYTMDVWGHGTTVTVSS
VL: not shown
modifications: peptides N-terminally acetylated and C-terminally amidated
B2: CL-464181 (antibody, V domains shown)
VH: QVQLVESGGGAVQAGTSLRLSCAASGFSFSYNGMHWVRQGPGKGLEWVAIIWYDGGNKFYADSVKGRFTISRDNSKKMLYLQMNRLRAEDTAVYYCARAWNFADNKYSMDVWGQGTTVTVSA
VL: DIQMTQSPSTLSASVGDRVTITCRASQSISCWLAWYQQKPGKAPQLLIYKASSLESGVPSRFSGSGSGTEFTLTISSLQPDDFATYYCQQYYIYWTFGQGTKVDIK
modifications: peptides N-terminally acetylated and C-terminally amidated
B3: CL-444653 (antibody, V domains shown)
VH: QVQLVESGGGVVQPGRSLRLSCTASGFTFSTYGMHWVRQAPGKGLEWVAIIWYDGGNKFYADSVKGRFTISRDNSKDTLYLQMNSLRAEDTAVYYCAKAWYKVDDKYSMDVWGQGTTVTVSS
VL: B2 VL with C31S, Q45K, S77G, Y92I, I93N, D104E
modifications: peptides N-terminally acetylated and C-terminally amidated

Chain of PfCSP full length (P19597 20-375): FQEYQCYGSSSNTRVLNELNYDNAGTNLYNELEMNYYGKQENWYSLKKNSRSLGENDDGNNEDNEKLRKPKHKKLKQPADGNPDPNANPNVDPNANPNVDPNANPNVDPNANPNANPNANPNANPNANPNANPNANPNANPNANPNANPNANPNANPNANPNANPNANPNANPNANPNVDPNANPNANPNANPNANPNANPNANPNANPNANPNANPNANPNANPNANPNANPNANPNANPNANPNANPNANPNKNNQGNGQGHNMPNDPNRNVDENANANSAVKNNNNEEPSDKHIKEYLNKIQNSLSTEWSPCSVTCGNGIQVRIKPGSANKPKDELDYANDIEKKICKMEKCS

The assay addresses PfCSP full length (Plasmodium falciparum (isolate NF54), UniProt P19597). Nature of the assay: ELISA AUC.
The molecule B1 yielded a binding score of 2.5.

Molecule B2 yielded a binding score of 2.4.

Molecule B3 came in with a binding score of 2.3.
